Measurements published in US20160032014A1 (Amgen, published 2016).
Where two headings read alike, the source gives them in different places.

B1: 8A3 variant HC I107M / LC N33Y, Y35H, S57L, S61H (antibody, V domains shown)
VH: not shown
VL: DIVMTQSPLSLPVTPGEPASISCRSSQSLLHSYGHNYLDWYLQKPGQSPQLLIYLGLNRAHGVPDRFSGSGSGTDFTLKISRVEAEDVGVYYCMQALQTPLTFGGGTKVEIKR
B2: 8A3 variant HC M103F/I107M / LC N33Y, Y35H, S57L, S61H (antibody, V domains shown)
VH: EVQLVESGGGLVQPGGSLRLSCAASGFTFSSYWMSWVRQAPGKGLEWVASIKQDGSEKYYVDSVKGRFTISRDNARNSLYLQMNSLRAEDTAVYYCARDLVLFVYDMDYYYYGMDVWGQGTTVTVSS
VL: DIVMTQSPLSLPVTPGEPASISCRSSQSLLHSYGHNYLDWYLQKPGQSPQLLIYLGLNRAHGVPDRFSGSGSGTDFTLKISRVEAEDVGVYYCMQALQTPLTFGGGTKVEIKR
B3: 8A3 variant HC M103N/I107M / LC N33Y, Y35H, S57L, S61H (antibody, V domains shown)
VH: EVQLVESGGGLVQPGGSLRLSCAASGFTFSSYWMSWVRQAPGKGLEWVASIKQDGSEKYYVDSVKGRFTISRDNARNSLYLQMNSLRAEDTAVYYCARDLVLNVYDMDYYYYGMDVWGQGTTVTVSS
VL: DIVMTQSPLSLPVTPGEPASISCRSSQSLLHSYGHNYLDWYLQKPGQSPQLLIYLGLNRAHGVPDRFSGSGSGTDFTLKISRVEAEDVGVYYCMQALQTPLTFGGGTKVEIKR
B4: 8A3 variant HC M103S/I107M / LC N33Y, Y35H, S57L, S61H (antibody, V domains shown)
VH: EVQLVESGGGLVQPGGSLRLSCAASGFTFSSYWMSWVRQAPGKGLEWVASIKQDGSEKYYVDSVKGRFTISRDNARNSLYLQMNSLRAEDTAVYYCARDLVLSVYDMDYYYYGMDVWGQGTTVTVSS
VL: DIVMTQSPLSLPVTPGEPASISCRSSQSLLHSYGHNYLDWYLQKPGQSPQLLIYLGLNRAHGVPDRFSGSGSGTDFTLKISRVEAEDVGVYYCMQALQTPLTFGGGTKVEIKR
B5: 8A3 variant HC WT / LC N33Y, Y35H, S57L, S61H (antibody, V domains shown)
VH: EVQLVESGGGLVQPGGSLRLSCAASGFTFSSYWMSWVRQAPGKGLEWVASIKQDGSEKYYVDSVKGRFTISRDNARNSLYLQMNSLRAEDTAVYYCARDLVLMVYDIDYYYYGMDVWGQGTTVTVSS
VL: DIVMTQSPLSLPVTPGEPASISCRSSQSLLHSYGHNYLDWYLQKPGQSPQLLIYLGLNRAHGVPDRFSGSGSGTDFTLKISRVEAEDVGVYYCMQALQTPLTFGGGTKVEIKR
B6: SS-15495 (antibody, V domains shown)
VH: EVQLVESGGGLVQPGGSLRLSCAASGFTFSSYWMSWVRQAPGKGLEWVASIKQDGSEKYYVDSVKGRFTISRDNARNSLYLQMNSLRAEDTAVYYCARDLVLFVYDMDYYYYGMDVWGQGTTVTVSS
VL: DIVMTQSPLSLPVTPGEPASISCRSSQSLLHSFGHNYLDWYLQKPGQSPQLLIYLGLNRAHGVPDRFSGSGSGTDFTLKISRVEAEDVGVYYCMQALQTPLTFGGGTKVEIKR
notes: HC M103F/I107M, LC N33F, Y35H, S57L, S61H
B7: SS-15496 (antibody, V domains shown)
VH: not shown
VL: DIVMTQSPLSLPVTPGEPASISCRSSQSLLHSFGHNYLDWYLQKPGQSPQLLIYLGLNRAHGVPDRFSGSGSGTDFTLKISRVEAEDVGVYYCMQALQTPLTFGGGTKVEIKR
notes: HC I107M, LC N33F, Y35H, S57L, S61H
B8: SS-15500 (antibody, V domains shown)
VH: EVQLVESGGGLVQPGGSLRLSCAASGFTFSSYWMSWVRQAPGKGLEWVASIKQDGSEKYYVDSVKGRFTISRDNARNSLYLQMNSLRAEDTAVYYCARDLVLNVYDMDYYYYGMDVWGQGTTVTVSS
VL: DIVMTQSPLSLPVTPGEPASISCRSSQSLLHSYGHNYLDWYLQKPGQSPQLLIYLGLNRAHGVPDRFSGSGSGTDFTLKISRVEAEDVGVYYCMQALQTPLTFGGGTKVEIKR
B9: SS-15501 (antibody, V domains shown)
VH: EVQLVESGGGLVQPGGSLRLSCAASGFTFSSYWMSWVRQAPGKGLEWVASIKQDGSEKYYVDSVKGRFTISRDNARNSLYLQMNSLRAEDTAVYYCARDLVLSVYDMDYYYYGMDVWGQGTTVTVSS
VL: DIVMTQSPLSLPVTPGEPASISCRSSQSLLHSFGHNYLDWYLQKPGQSPQLLIYLGLNRAHGVPDRFSGSGSGTDFTLKISRVEAEDVGVYYCMQALQTPLTFGGGTKVEIKR
B10: SS-15504 (antibody, V domains shown)
VH: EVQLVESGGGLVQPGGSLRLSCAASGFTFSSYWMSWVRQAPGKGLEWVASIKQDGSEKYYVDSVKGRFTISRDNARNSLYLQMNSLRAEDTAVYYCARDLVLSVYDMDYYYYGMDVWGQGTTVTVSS
VL: DIVMTQSPLSLPVTPGEPASISCRSSQSLLHSNGHNYLDWYLQKPGQSPQLLIYLGLNRAHGVPDRFSGSGSGTDFTLKISRVEAEDVGVYYCMQALQTPLTFGGGTKVEIKR
notes: HC M103S/I107M, LC Y35H, S57L, S61H

Assays:
[1] = biological target: T1, human PCSK9 (self-cleaved, mature, secreted PCSK9 comprising amino acids 31 to 692 of SEQ ID NO: 2) (human, UniProt Q8NBP7 31-692, biotinylated in the ELISAs); experiment: SPR pH 7.4
T1 construct: Limits 31-692 are stated for the immunogen; the assays only say human PCSK9; also called huPCSK9; rhu PCSK9

[2] = biological target: T1, human PCSK9 (self-cleaved, mature, …); experiment: SPR pH 7.4; remark: listed apart in the source

| Binder | Kd [1] [pM] | koff [1] [s⁻¹] | kon [1] [M⁻¹ s⁻¹] | Kd [2] [pM] | koff [2] [s⁻¹] | kon [2] [M⁻¹ s⁻¹] |
| --- | --- | --- | --- | --- | --- | --- |
| B1 | 572 | 0.000326 | 570000 | 572 | 0.000326 | 570000 |
| B2 | 528 | 0.000253 | 480000 | 528 | 0.000253 | 480000 |
| B3 | 819 | 0.000425 | 519000 | 819 | 0.000425 | 519000 |
| B4 | 1280 | 0.000758 | 594000 | 1280 | 0.000758 | 594000 |
| B5 | 2810 | 0.00115 | 410000 | 2810 | 0.00115 | 410000 |
| B6 | 285 | 0.000152 | 534000 | 285 | 0.000152 | 534000 |
| B7 | 292 | 0.000194 | 665000 | 292 | 0.000194 | 665000 |
| B8 | 459 | 0.000304 | 663000 | 459 | 0.000304 | 663000 |
| B9 | 804 | 0.000578 | 719000 | 804 | 0.000578 | 719000 |
| B10 | 232 | 8.26e-05 | 356000 | 232 | 8.26e-05 | 356000 |
